Experimental findings from publication PMC12814185, “Receptor-Mediated Shuttling of a D‑Amino Acid Peptide Achieves High Nanomolar Cytosolic Concentrations” (Journal of the American Chemical Society, 2025) are described below.

Assay [1] addresses T1, chemokine-like receptor 1 (CMKLR1), Q99788.
T1 chain: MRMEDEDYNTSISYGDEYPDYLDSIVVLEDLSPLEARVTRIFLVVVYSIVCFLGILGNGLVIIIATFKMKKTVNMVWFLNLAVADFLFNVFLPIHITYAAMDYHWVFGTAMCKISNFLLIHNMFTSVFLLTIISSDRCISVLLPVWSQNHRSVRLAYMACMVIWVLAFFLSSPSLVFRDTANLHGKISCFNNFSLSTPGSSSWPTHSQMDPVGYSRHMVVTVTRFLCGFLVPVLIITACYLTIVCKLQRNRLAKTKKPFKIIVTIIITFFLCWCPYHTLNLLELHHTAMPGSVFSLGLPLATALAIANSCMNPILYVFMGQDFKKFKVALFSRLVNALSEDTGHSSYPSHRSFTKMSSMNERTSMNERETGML

For assay [2], the target named is recombinant human GST-MDM2 (human), Q00987. The assay is described as follows: fluorescence polarisation.
Sequence of recombinant human GST-MDM2 (human), Q00987 (Q00987 whole entry): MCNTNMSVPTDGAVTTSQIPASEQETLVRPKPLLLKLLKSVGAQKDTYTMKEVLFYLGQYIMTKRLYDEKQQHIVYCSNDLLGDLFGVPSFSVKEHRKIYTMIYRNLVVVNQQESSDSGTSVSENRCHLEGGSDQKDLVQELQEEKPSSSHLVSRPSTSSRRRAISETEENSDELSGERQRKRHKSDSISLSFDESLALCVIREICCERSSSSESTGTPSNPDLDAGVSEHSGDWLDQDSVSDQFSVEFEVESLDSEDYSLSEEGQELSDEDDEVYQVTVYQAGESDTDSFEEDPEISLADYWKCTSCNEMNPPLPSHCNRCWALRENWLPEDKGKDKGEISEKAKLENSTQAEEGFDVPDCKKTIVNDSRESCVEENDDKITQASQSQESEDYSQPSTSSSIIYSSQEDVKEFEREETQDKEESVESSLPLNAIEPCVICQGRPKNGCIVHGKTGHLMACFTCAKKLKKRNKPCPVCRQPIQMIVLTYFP

B1: Cy5-hsLMWP-PMIγ-cC9 (peptide)
chain: GSVSHHHHHHGGHHHHKDWWPLAFEALLRGEV
modifications: (EG)3 spacer between hsLMWP and D-lysine; D-lysine at 17 carrying Cy5-(EG)3 on its side chain; dwwplafeallr (residues 18-29) are D-amino acids; citrulline at 33; (EG)3 spacer between Cit and Pra; propargylglycine (Pra) at 34, joined to the azidolysine of cC9 by CuAAC; C-terminal amide | N-terminal acetyl; azidolysine at 1 (joined to Pra of the other chain by CuAAC); D-homocysteine at 5 in a …
In assay [1], B1 displayed a Ca2+ flux assay, EC50 of 220 nM. Also, the equilibrium dissociation constant (Kd) in assay [2] came out at 90 nM.
